In assay [1] the target is T1, Human fibrin γ377-395 (Human P2 peptide) (human).
T1 construct: In the crystal models, residues 410-421 of chain A are ordered; also called fibrin P2 peptide; fibrin P2 gamma peptide
T1 peptide: Biotin-YSMKKTTMKIIPFNRLTIG
Description: BLI (ForteBio Octet): N-term biotinylated fibrin P2G peptide on SA tip, IgG in solution 100 nM (avid).

Assay [2] has as its target T1, Human fibrin γ377-395 (Human P2 peptide). Description: BLI (Octet): N-term biotinylated P2G peptide on SA sensor, 100nM Fab in solution.
Assay [3] shares this target. Description: BLI (ForteBio Octet): N-term biotinylated fibrin P2G peptide on SA tip, IgG in solution 100 nM (avid) [Cont.]. For orientation: Biolayer interferometry detects binding as a change in optical thickness at a sensor tip.
Assay [4] shares this target. Description: BLI (ForteBio Octet): N-term biotinylated fibrin P2G peptide on SA tip, Fab in solution 100 nM (monovalent) [Cont.].
For assay [5] the target is unchanged. Description: BLI (ForteBio Octet): N-term biotinylated fibrin P2G peptide on SA tip, IgG in solution 100 nM (avid).
Assay [6] has the same target. Description: ELISA (N-P2 ELISA), RFU readout; C is the duplicate of clone 61278.
For assay [7] the target is unchanged. Description: ELISA (N-P2 ELISA), RFU readout. (In general: An ELISA detects its analyte on a solid surface through an enzyme-linked reagent.)
For assay [8] the target is unchanged. Description: BLI (ForteBio Octet): N-term biotinylated fibrin P2G peptide on SA tip, Fab in solution 100 nM (monovalent).
Assay [9] shares this target. Description: BLI (Octet RED384), Fab on P2 peptide; on-rate phase 0-300 s, off-rate phase 300-600 s.
Assay [10] shares this target. Description: BLI (Octet): N-term biotinylated P2G peptide on SA sensor, 100nM Fab in solution; the same panel stands twice in the middle row.
The target is the same in assay [11]. Description: BLI (ForteBio Octet): N-term biotinylated fibrin P2G peptide on SA tip, Fab in solution 100 nM (monovalent).
Assay [12] concerns the target T2, Rat P2 peptide (rat).
T2 construct: also called Mouse/Rat P2 peptide
T2 peptide: YSMKETTMKIIPFNRLSIG
Description: ELISA of ADI-60143 IgG on NP2 peptide (rat), RFU readout; drawn table, column Rat.

Assay [13] concerns the target T1, Human fibrin γ377-395 (Human P2 peptide). Description: ELISA of ADI-60143 IgG on NP2 peptide (human), RFU readout; drawn table, column Human.
Assay [14] has as its target T3, NP2 (Rabbit) (not fully specified (N-terminus)).
T3 construct: 'N-P2' elsewhere in the drawings stands for the N-term biotinylated P2 peptide; also called Rabbit P2 peptide; NP2 Fab (Rabbit) in the legend box of panel A
T3 peptide: YSMKKTTMKIIPLNRLSIG
Description: ELISA of ADI-60143 IgG on NP2 peptide (rabbit), RFU readout; drawn table, column Rabbit.

The target in assay [15] is T4, Human P2 peptide extended (human).
T4 construct: also called human extended P2 peptide
T4 peptide: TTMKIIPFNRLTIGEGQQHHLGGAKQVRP
Description: ELISA of ADI-60143 IgG on Ext NP2 peptide (human), RFU readout; drawn table, column Human.

The target of assay [16] is T5, Ext NP2 (Rabbit).
T5 construct: also called Rabbit P2 peptide extended
T5 peptide: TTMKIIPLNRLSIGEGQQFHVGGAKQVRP
Description: ELISA of ADI-60143 IgG on Ext NP2 peptide (rabbit), RFU readout; drawn table, column Rabbit.

Assay [17] has as its target T6, Rat P2 peptide extended (rat).
T6 construct: also called rat extended P2 peptide
T6 peptide: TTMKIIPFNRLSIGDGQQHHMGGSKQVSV
Description: ELISA of ADI-60143 IgG on Ext NP2 peptide (rat), RFU readout; drawn table, column Rat; the curve has no upper plateau at 500 nM.

For assay [18], the target named is T1, Human fibrin γ377-395 (Human P2 peptide). Description: ELISA of ADI-60143 Fab on NP2 peptide (human), RFU readout; drawn table, column Human.
Assay [19] deals with T2, Rat P2 peptide. Description: ELISA of ADI-60143 Fab on NP2 peptide (rat), RFU readout; drawn table, column Rat.
For assay [20], the target named is T3, NP2 (Rabbit). Description: ELISA of ADI-60143 Fab on NP2 peptide (rabbit), RFU readout; drawn table, column Rabbit.

Positions count from the first letter of the chain named. Where no end group is shown, it is not given here. The star is where a group is joined. Biotin = O=C1N[C@H]2[C@H](CS[C@H]2CCCCC(=O)*)N1

B1: 60140 (IgG) (antibody, V domains shown)
VH: QVQLVQSGAEVKKPGASVKVSCKASGYTFTSVWIHWVRQAPGQGLEWIGLIDPSDSYTNYNQKFRGRATLTVDTSTSTAYMELSSLRSEDTAVYYCASSRPTGGWGQGTTVTVSS
VL: DIVMTQSPLSLPVTPGEPASISCRSSKSLLHSSGITYLSWYLQKPGQSPQLLIYQMSNLASGVPDRFSGSGSGTDFTLKISRVEAEDVGVYYCAQNLELPLTFGGGTKVEIKR
In the case of B1, the binding result in [1] is “binds”.

B2: 56666 (parent) (Fab) (Fab, V domains shown)
VH: B1 VH with V32Y, I48M, A68V, L70M, R100D
VL: B1 VL
notes: also called ADI-56666; clone 56666 Fab
What is called Kd is the equilibrium constant for the complex coming apart. As for B2, the affinity in assay [2], expressed as Kd, was 1300 nM.

B3: 61255 (IgG) (antibody, V domains shown)
VH: B1 VH with V32Y, R100D, P101A
VL: B1 VL with I35H, S48P, N96A
notes: also called clone 61255 IgG
As for B3, in assay [3], the binding result is “binds”.

B4: 61255 (Fab) (Fab, V domains shown)
VH: B1 VH with V32Y, R100D, P101A
VL: B1 VL with I35H, S48P, N96A
notes: also called clone 61255 Fab
As to B4, the binding result in assay [4] was “binds”.

B5: ADI-61283 (IgG) (antibody, V domains shown)
VH: B1 VH with V32A, I48M, A68V, L70M, R100D, T102Y
VL: B1 VL with L59K, N96S
Turning to B5, the binding result in assay [5] is reported as “binds”.

B6: antibody clone 61278 (ADI-61278 IgG) (antibody, V domains shown)
VH: B1 VH with V32Y, I48M, A68V, L70M, R100D, P101A
VL: B1 VL with N96A
For orientation: EC50 means the concentration giving half of the maximal effect. High values mean a need for much substance, low ones an effect from little substance. For the molecule B6, the EC50 in [6] was 0.11 nM; in assay [7], 0.13 nM.

B7: 61273 (Fab) (Fab, V domains shown)
VH: B1 VH with V32T, I48M, A68V, L70M, R100K
VL: B1 VL with L38I
notes: also called ADI-61273; clone 61273 Fab
For B7, in [4], the binding result is reported as “binds”.

B8: ADI-61283 (Fab) (Fab, V domains shown)
VH: B1 VH with V32A, I48M, A68V, L70M, R100D, T102Y
VL: B1 VL with L59K, N96S
On to B8, for which the binding result in assay [8] is “binds”.

B9: 61273 (IgG) (antibody, V domains shown)
VH: B1 VH with V32T, I48M, A68V, L70M, R100K
VL: B1 VL with L38I
notes: also called ADI-61273; clone 61273 IgG
Regarding B9, in assay [3], the binding result is “binds”.

B10: 60183 (Fab) (Fab, V domains shown)
VH: B1 VH with V32T, I48M, A68V, L70M, R100K
VL: B1 VL
notes: also called ADI-60183; clone 60183 Fab
For B10, the binding result in assay [4] was “binds”.

B11: 60183 (IgG) (antibody, V domains shown)
VH: B1 VH with V32T, I48M, A68V, L70M, R100K
VL: B1 VL
notes: also called ADI-60183; clone 60183 IgG
Take B11: in assay [3], the binding result was “binds”.

B12: 61275 (IgG) (antibody, V domains shown)
VH: B1 VH with V32S, I48M, A68V, L70M, R100A
VL: B1 VL with N96A
Consider B12, for which the binding result in assay [1] is reported as “binds”.

B13: Fab of antibody clone 61278 (ADI-61278 Fab) (Fab, V domains shown, not shown: a dimerising Fc or GST)
VH: B1 VH with V32Y, I48M, A68V, L70M, R100D, P101A
VL: B1 VL with N96A
notes: The crystal model holds chain H residues 1-126 and 133-214 and chain L residues 1-213; also called Fab ADI61278
Turning to B13, the dissociation constant (Kd) in assay [9] is 104 nM; in assay [10], 38 nM.

B14: 61285 (IgG) (antibody, V domains shown)
VH: B1 VH with V32S, I48M, A68V, L70M, R100D, T102H
VL: B1 VL with N96S
On to B14, for which, in assay [1], the binding result is given as “binds”.

B15: 56657 (parent) (Fab) (Fab, V domains shown)
VH: B1 VH with V32Y, R100D
VL: B1 VL
notes: also called ADI-56657; clone 56657 Fab
The molecule B15 showed a Kd in assay [2] of 264 nM.

B16: 61275 (Fab) (Fab, V domains shown)
VH: B1 VH with V32S, I48M, A68V, L70M, R100A
VL: B1 VL with N96A
On to B16, for which the binding result in assay [11] is recorded as “binds”.

B17: 60140 (Fab) (Fab, V domains shown)
VH: B1 VH
VL: B1 VL
Turning to B17, the binding result in assay [11] is listed as “binds”.

B18: 61285 (Fab) (Fab, V domains shown)
VH: B1 VH with V32S, I48M, A68V, L70M, R100D, T102H
VL: B1 VL with N96S
As for B18, the binding result in [11] was “binds”.

B19: antibody clone 60143 (full length ADI-60143 IgG) (antibody, V domains shown)
VH: B1 VH with V32T, R100K
VL: B1 VL
In the case of B19, the EC50 in assay [12] is 0.094 nM; in assay [13], 0.11 nM; in assay [14], 0.082 nM; in [15], 7.25 nM; in [16], 5.97 nM; in assay [17] it was 139 nM. In assay [7], the EC50 was determined as 0.08 nM.

B20: Fab of antibody clone 60143 (ADI-60143 Fab) (Fab, V domains shown)
VH: B1 VH with V32T, R100K
VL: B1 VL
notes: The crystal model holds chain H residues 1-127 and 134-214 and chain L residues 1-213; not shown: The papain cleavage limit is not stat
On to B20, for which the EC50 was 0.34 nM in assay [18], 1.78 nM in [19] and 0.67 nM in assay [20]. Moreover, the Kd in assay [9] is 70 nM; in [10] it was 23 nM.

Source of the values: patent US20240279321A1 (THERINI BIO, published 2024).
